In US20060068465:
Numbering of substitutions follows the chain as printed.

B1: yeast UBP2 (protein)
chain: MPNEDNELQKAIENHHNQLLNQDKENADRNGSVIEDLPLYGTSINQQSTPGDVDDGKHLLYPDIATNLPLKTSDRLLDDILCDTIFLNSTDPKVMQKGLQSRGILKESMLSYSTFRSSIRPNCLGSLTDQVVFQTKSEYDSISCPKYNKIHVFQAVIFNPSLAEQQISTFDDIVKIPIYHLKVSVKVRQELERLKKHVGVTQFHSLDHLHEYDRVDLSTFDSSDPNLLDYGIYVSDDTNKLILIEIFKPEFNSPEEHESFTADAIKKRYNAMCVKNESLDKSETPSQVDCFYTLFKIFKGPLTRKSKAEPTKTIDSGNLALNTHLNPEWLTSKYGFQASSEIDEETNEIFTEYVPPDMVDYVNDLETRKIRESFVRKCLQLIFWGQLSTSLLAPNSPLKNTKSVKGMSSLQTSFSTLPWFHLLGESRARILLNSNEQTHSPLDAEPHFINLSVSHYYTDRDIIRNYESLSSLDPENIGLYFDALTYIANRKGAYQLIAYCGKQDIIGQEALENALLMFKINPKECNISELNEATLLSIYKYETSNKSQVTSNHLTNLKNALRLLAKYTKSDKLKFYVDHEPYRALSQAYDTLSIDESVDEDIIKTAYSVKINDSPGLKLDCDRALYTIAISKRSLDLFNFLTEECPQFSNYYGPEKLDYQEALKLLQVNENASDETILKIFKQKWFDENVYEPDQFLILRAALTKISIERNSTLITNFLLTGTIDPNSLPPENWPTGINNIGNTCYLNSLLQYYFSIAPLRRYVLEYQKTVENFNDHLSNSGHIRRIGGREISRGEVERSIQFIYQLRNLFYAMVHTRERCVTPSKELAYLAFAPSNVEVEFEVEGNKVVDQTGVLSDSKKETTDDAFTTKIKDTSLIDLEMEDGLNGDVGTDANRKKNESNDAEVSENEDTTGLTSPTRVAKISSDQLENALEMGRQQDVTECIGNVLFQIESGSEPIRYDEDNEQYDLVKQLFYGTTKQSIVPLSATNKVRTKVERFLSLLINIGDHPKDIYDAFDSYFKDEYLTMEEYGDVIRTVAVTTFPTILQVQIQRVYYDRERLMPFKSIEPLPFKEVIYMDRYADTENPLLLAKKKETEEMKQKLKVMKNRQRELLSRDDSGLTRKDAFLESIKLLESDTIKKTPLKIEAANDVIKTLRNNVQNIDNELMKLYNDINSLEEKISHQFDDFKEYGYSLFSVFIHRGEASYGHYWIYIKDRNRNGIWRKYNDETISEVQEEEVFNFNEGNTATPYFLVYVKQGQEGDIEPLKRILK
B2: synaptic USP (synUSP), full length (protein)
chain: MAPRLQLEKAAWRWAETVRPEEVSQEHIETAYRIWLEPCIRGVCRRNCRGNPNCLVGIGEHIWLGEIDENSFHNIDDPNCERRKKNSFVGLTNLGASCYVNTFLQVWFLNLELRQALYLCPSTCSDYTKGDGIRGGKDYEPQTICEHLQYLFALLQNSNRRYIDPSGFVKALGLDTGQQQDAQESSKLFMSLLEDTLSKQKNPDVRNVVQQQFCGEYAYVTVCSQCGRESKLVSKFYELELNIQGHKQLTDCISEFLKEERLEGDNRYFCENCQSKQNATRKIRLLSLPCTLNLQLMRFVFDRQTGHKKKLNAYIGFSESLDMEPYVEHKGGSFVYELSAVLIHRGVSAYSGHYIAHVKDPQSGDWYKFNDEDIEKMEGKKLQLGIEEDLTEPSKSQTRKPKCGKGTHCSRNAYMLVYRLQTQEKNHTMVQVPAFLQELVDRDNSKFEEWCVEMAEMRRQSVDKGRAKHEEVKELYQRLPAGAEPYEFVSLEWLQKWLDESTPTKPIDNNACLCSHDKLHPDKISIMKRISEYAADIFYSRYGGGPRLTVKALCKDCVVERCRILRLKNQLNEDYKTVNNLLKATMKGSDGFWVGKSSLRSWRQLALEQLDEQDGEAEQSNGKINGSPFSKDESKEEKKEEEEELNFNEDILCPHGELSISENERRLVSQEAWSKLQQYFPKAPEFPSYKECCSQCKILEREGEENEALHKMIAKEQKTSLPNLFQDKNRPCLSNWPEDTDALYIVSHFFLDEWRKFVRKPARSTPVSSVGNAALLCPHGGLMFTFPSLTKEDSKLIALIWPSEWQMIQKLFVVDKVIKITRIEVGDVNPSQTQYISEPNLCPDCREGLLCQQQKDLREYTQATIYVHKVVDNKKVMKDSAPELNVSSSETEEDKEEAKPDGEKDPDFNQSNGGTKRQKTSQQGYVAYQKQVIRRSTRHRKVRGEKALLVSANQTLKELKIQIMHAFSVAPFDQNLSIDGKILNDDCATLGTLGVIPESVILLKADEPIADYAAMDDVMQVCMPEEGFKGTGLLGH
B3: synUSP in which Cys98 was replaced with Ala (protein)
chain: B2 chain with C98A

Each protein was assayed against GST-Ub52 fusion protein [GST: P08515].
GST-Ub52 fusion protein [GST: P08515], sequence (P08515 whole entry, looked up, the tested form may be a part): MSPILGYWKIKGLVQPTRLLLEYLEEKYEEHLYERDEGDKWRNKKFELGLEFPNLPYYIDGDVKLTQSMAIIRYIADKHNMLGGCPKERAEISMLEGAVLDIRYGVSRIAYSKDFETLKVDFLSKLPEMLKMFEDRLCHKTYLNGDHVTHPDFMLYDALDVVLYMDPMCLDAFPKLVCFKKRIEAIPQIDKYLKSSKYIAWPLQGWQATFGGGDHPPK

Protein	USP activity: cleavage of GST-Ub52 on co-expression in E. coli, SDS-PAGE with Coomassie staining
B1	The GST-Ub52 protein was degraded to a band of 30 kDa by the co-expression of yeast USP2
B2	the amount of the GST-Ub52 protein of 45 kDa decreased, and the proteolysis product of 30 kDa markedly increased along with it
B3	The activity of synUSP disappeared by either replacing Cys98 with Ala
